Measurements as given in US20190284262A1.

Columns and labels:
[1] = biological target: 017-mut7 peptide (…)/HLA-A*02:01 complex on T2 cells (human); experiment: flow cytometry, HLA-A2 staining of T2 pulsed with peptide A7 (T2 stabilisation)
[2] = biological target: 017-mut1 peptide (…)/HLA-A*02:01 complex on T2 cells (human); experiment: flow cytometry, HLA-A2 staining of T2 pulsed with peptide A1 (T2 stabilisation)
[3] = biological target: 017-mut5 peptide (…)/HLA-A*02:01 complex on T2 cells (human); experiment: flow cytometry, HLA-A2 staining of T2 pulsed with peptide A5 (T2 stabilisation)
[4] = biological target: Foxp3-7 peptide/HLA-A*02:01 complex on the cell surface (human); experiment: flow cytometry, HLA-A2 staining of T2 pulsed with the wild type Foxp3-7 peptide (T2 stabilisation)
[5] = biological target: 017-mut8 peptide (…)/HLA-A*02:01 complex on T2 cells (human); experiment: flow cytometry, HLA-A2 staining of T2 pulsed with peptide A8 (T2 stabilisation)
[6] = biological target: 017-mut3 peptide (…)/HLA-A*02:01 complex on T2 cells (human); experiment: flow cytometry, HLA-A2 staining of T2 pulsed with peptide A3 (T2 stabilisation)
[7] = biological target: HLA-A2 on MAC-1 and MAC-2A cells (Homo sapiens), A*02:0; experiment: flow cytometry on MAC-2A cells, HLA-A2 staining; isotype control 86.2
[8] = biological target: HLA-A2 on MAC-1 and MAC-2A cells (Homo sapiens), A*02:0; experiment: flow cytometry on MAC-1 cells, HLA-A2 staining; isotype control 93.6
[9] = biological target: T2+FoxP7-G10 (Homo sapiens), A*02:0; experiment: flow cytometry, HLA-A2 staining of T2 pulsed with peptide G10 (T2 stabilisation)
[10] = biological target: 017-mut2 peptide (…)/HLA-A*02:01 complex on T2 cells (human); experiment: flow cytometry, HLA-A2 staining of T2 pulsed with peptide A2 (T2 stabilisation)
[11] = biological target: 017-mut9 peptide (…)/HLA-A*02:01 complex on T2 cells (human); experiment: flow cytometry, HLA-A2 staining of T2 pulsed with peptide A9 (T2 stabilisation)
[12] = biological target: HLA-A*02:01 on T2 cells alone (no peptide added) (human); experiment: flow cytometry, HLA-A2 staining of T2 without peptide
[13] = biological target: HLA-A2 on MAC-1 and MAC-2A cells (Homo sapiens), A*02:0; experiment: flow cytometry on MAC-2A cells, isotype control of BB7
[14] = biological target: HLA-A2 on MAC-1 and MAC-2A cells (Homo sapiens), A*02:0; experiment: flow cytometry on MAC-1 cells, isotype control of BB7

Median:FITC-A [1] | Median:FITC-A [2] | Median:FITC-A [3] | Median:FITC-A [4] | Median:FITC-A [5] | Median:FITC-A [6] | Median:FITC-A [7] | Median:FITC-A [8] | Median:FITC-A [9] | Median:FITC-A [10] | Median:FITC-A [11] | Median:FITC-A [12] | Median:FITC-A [13] | Median:FITC-A [14] | Substance
18600 | 29600 | 10400 | 18000 | 16500 | 35100 | 44000 | 35000 | 34100 | 11200 | 10400 | 6940 |  |  | BB7 (antibody)
 |  |  |  |  |  |  |  |  |  |  |  | 86.2 | 93.6 | mIso (antibody)
